Data: publication PMC4596477, “Interaction of Myosin Phosphatase Target Subunit (MYPT1) with Myosin Phosphatase-RhoA Interacting Protein (MRIP): A Role of Glutamic Acids in the Interaction” (PLoS ONE, 2015)

T1: MRIP^724-878 (Homo sapiens, UniProt Q6WCQ1)
T1 construct: MRIP^724-878 (residues 724–878; CC2-CC4); made in house; host or cells: Escherichia coli BL21 (DE3)
T1 sequence (Q6WCQ1 725-879): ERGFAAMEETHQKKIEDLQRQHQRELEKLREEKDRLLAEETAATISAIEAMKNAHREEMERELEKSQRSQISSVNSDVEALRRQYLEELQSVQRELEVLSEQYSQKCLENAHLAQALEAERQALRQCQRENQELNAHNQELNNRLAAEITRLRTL


Tests used:
[1] = target: T1, MRIP^724-878; test: AUC interaction of MYPT1 peptides (CC, LR and LR mutants) with MRIP^724-878; format: binding; details: equimolar mixture (CC: 50 μM each) and dilutions, pH 7.4, 100 mM KCl, 20°C
Text: (§1) To determine the minimal MRIP-binding region of MYPT1, AUC was employed to examine interactions between sub-domains of CCLR, CC (residues 924–990) and LR (residues 991–1030) with MRIP^724-878 (Fig 4A). CC is the putative coiled coil domain and LR contains 16 upstream amino acid residues (residues 991–1006) in addition to the leucine repeat (residues 1007–1028). MRIP^724-878 was chosen because of its good fit to a single component, single-species model. […] Global fitting of the mixture to a two-component model produced a good fit and the RMSD of the fit was 0.010 (Fig 4B; Fitting of CC).
The coiled coil is a common protein-protein interaction domain. The MRIP peptides in this study have putative coiled coil domains and are α-helical. In contrast, the MYPT1 peptide, LR is not α-helical even though it contains the leucine repeat. Thus, we hypothesized that charged residues of MYPT1 might participate in the MYPT1/MRIP interaction with its leucine residues. We generated various LR peptides representing mutations in charged residues (Fig 6A) and examined their bindings to MRIP^724-878 (Fig 6B).
Fig 6 Glutamic acids within LR enhance the MRIP-binding affinity. (A) Amino acid sequences of the wild-type LR (WT-LR) and mutant LR peptides. Charged residues are in bold, the leucine repeat is in Italic, and substitution mutations are underlined. (B) Time derivative s*lg(s*) graphs: Line, MRIP^724-878 alone (50 μM); filled-in circles, original mixture of MRIP^724-878/each mutant LR peptide (50 μM each except for R992D/R993D and E996K whose mixtures consisted of excess amount of the mutant LR peptides); open circles, a three-fold dilution of the original mixture. The molar mass of the complex differs slightly from that of MRIP^724-878 dimer (37.9 kDa vs 37.4 kDa), and thus the shift in the main peak position is not easily discernable in many cases.
The cDNA fragment encoding MRIP peptides were amplified using a full-length MRIP cDNA as a template with the following primer pairs: MRIP^545-878, 5’-[…]/5’[…]; MRIP^724-878, 5’-[…]/5’-[…]; MRIP^724-837, 5’-[…]/5’-[…]. The PCR products were ligated into pCR2.1-TOPO using the TA cloning system and sequenced in both directions. The IMPACT™ (Intein Mediated Purification with an Affinity Chitin-binding Tag) Kit (New England BioLabs) was used to express peptides in bacteria to obtain tag-free peptides. The PCR amplicon encoding MRIP peptides were fused in frame to the chitin binding domain of pTYB12 vector utilizing the NdeI/EcoRI restriction sites. The expression vectors for the MYPT1 peptides, CCLR (residues 924–1030), CC (residues 924–990), and LR (residues 991–1030) were constructed as described: In the reference literature, CCLR and LR were named CCLZ and LZ, respectively. Recombinant peptides were produced in Escherichia coli strain BL21 (DE3) and purified using chitin beads according to the manufacturer's protocol. For further purification, the eluent from chitin beads was loaded on a Vydac C8 reversed phase column and subjected to HPLC using an acetonitrile gradient. Purity and identity of the peptides were confirmed by polyacrylamide gel electrophoresis (PAGE) and mass spectrometry. For the mutagenesis study of LR, the wild-type and mutant LR peptides were synthesized, purified by reverse-phase HPLC, and lyophilized to dryness at the peptide core in Boston Biomedical Research Institute.
Sedimentation velocity experiments were done on a Beckman Instruments Optima XL-I analytical ultracentrifuge equipped with Rayleigh optics. The cells were equipped with sapphire windows and 12 mm charcoal-filled Epon centerpieces. Apparent sedimentation coefficient distribution patterns were computed by the time derivative method. Peptides were dialyzed against 50 mM potassium phosphate buffer (pH 7.4) containing 100 mM KCl, and 1 mM DTT at 4°C overnight and then subjected to AUC at 50,000 rpm and 20°C. […]

[2] = target: T1, MRIP^724-878; test: SPR, MYPT1 peptides as analytes over immobilized MRIP^724-878; format: binding; details: 25°C, pH 7.4, CCLR 167–1 μM, CC 318–10 μM, LR 569–5 μM
Protocol: To corroborate the results from AUC studies, SPR was employed. […] Equilibrium K d values were obtained by nonlinear curve fitting of reference-corrected curves using the steady-state affinity fitting model in BIAevaluation version 4–1.
Analytes CCLR, CC, LR: Interactions between analytes, CCLR (167–1 μM), CC (318–10 μM), and LR (569–5 μM) with immobilized ligand, MRIP^724-878 (1800 RU) after correction for nonspecific binding using G-actin (2230 RU). Shown is a representative out of 9 experiments for CCLR and 8 for LR in each, duplicates or triplicates. Insets show fittings of steady-state affinity. Ligand LR: Interaction of analyte, MRIP^724-878 (85.6–0.7 μM) with immobilized ligand, LR (244.8 RU) after correction for nonspecific binding using a nebulin-derived peptide (600 RU). Shown is a representative out of 6 experiments.
Binding analyses of SPR were conducted on a Biacore 3000 (GE Healthcare) at 25°C. Sensor chips and reagents for immobilization (1-ethyl-3-(3-dimethylaminopropyl) carbodiimide, N-hydroxyl-succinimide, and ethanolamine) were purchased from GE Healthcare. Peptides were immobilized onto a CM5 sensor chip at 232–5841 resonance units (RU) using amine coupling. Binding studies were done using two-fold serial dilutions of the peptides in 50 mM potassium phosphate buffer (pH 7.4) containing 100 mM KCl. […]

[3] = AUC of MYPT1 peptides alone (concentration dependence, self-association); format: physicochemical; details: CC alone, 107 μM and 3-, 9-fold dilutions, MRIP^724-878 alone, 50 μM and 3-, pH 7.4, 20°C
Text: as §1
Fig 4 LR contains sufficient residues for the MYPT1/MRIP interaction. […] CC; Concentration-normalized time derivative g(s*) plots of CC, MRIP^724-878, and equimolar mixtures of the two peptides: Black filled-in circles, an original CC alone (107 μM); dark gray filled-in circles, a 3-fold dilution of CC alone; light gray filled-in circles, a 9-fold dilution of CC alone; black filled-in triangles, an original MRIP^724-878 alone (50 μM); dark gray filled-in triangles, a 3-fold dilution of MRIP^724-878 alone; light gray filled-in triangles, a 9-fold dilution of MRIP^724-878 alone; a black line, an original equimolar mixture of MRIP^724-878/CC (50 μM each): a dark gray line, a 3-fold dilution of the mixture; a light gray line, a 9-fold dilution of the mixture. […]

[4] = test system: MRIP; set-up: method as in PMID 16243315; details: double point mutations in CC5; ref [12]; cited from earlier work

| Molecule | binding to MRIP^724-878 (g(s*) curves) [1] | complex formation with immobilized MRIP^724-878 [2] | concentration dependence of g(s*) curves [3] | oligomerization [4] |
| --- | --- | --- | --- | --- |
| CC: sub-domain of CCLR, residues 924–990; the putative coiled coil domain (protein, UniProt Q6WCQ1 924-990, looked up, fragment) KDELQTALRDKKYASDKYKDIYTELSIAKAKADCDISRLKEQLKAATEALGEKSPDSATVSGYDIMK | no binding | did not | superimposable, indicating concentration-independence |  |
| L905P/I912P: MRIP mutation employed by Mulder et al; double point mutation in CC5 (protein, UniProt Q6WCQ1 2-1025, looked up, variant L905P I912P) Myosin phosphatase …: SAAKENPCRKFQANIFNKSKCQNCFKPRESHLLNDEDLTQAKPIYGGWLLLAPDGTDFDNPVHRSRKWQRRFFILYEHGLLRYALDEMPTTLPQGTINMNQCTDVVDGEGRTGQKFSLCILTPEKEHFIRAETKEIVSGWLEMLMVYPRTNKQNQKKKRKVEPPTPQEPGPAKVAVTSSSSSSSSSSSIPSAEKVPTTKSTLWQEEMRTKDQPDGSSLSPAQSPSQSQPPAASSLREPGLESKEEESAMSSDRMDCGRKVRVESGYFSLEKTKQDLKAEEQQLPPPLSPPSPSTPNHRRSQVIEKFEALDIEKAEHMETNAVGPSPSSDTRQGRSEKRAFPRKRDFTNEAPPAPLPDASASPLSPHRRAKSLDRRSTEPSVTPDLLNFKKGWLTKQYEDGQWKKHWFVLADQSLRYYRDSVAEEAADLDGEIDLSACYDVTEYPVQRNYGFQIHTKEGEFTLSAMTSGIRRNWIQTIMKHVHPTTAPDVTSSLPEEKNKSSCSFETCPRPTEKQEAELGEPDPEQKRSRARERRREGRSKTFDWAEFRPIQQALAQERVGGVGPADTHEPLRPEAEPGELERERARRREERRKRFGMLDATDGPGTEDAALRMEVDRSPGLPMSDLKTHNVHVEIEQRWHQVETTPLREEKQVPIAPVHLSSEDGGDRLSTHELTSLLEKELEQSQKEASDLLEQNRLLQDQLRVALGREQSAREGYVLQATCERGFAAMEETHQKKIEDLQRQHQRELEKLREEKDRLLAEETAATISAIEAMKNAHREEMERELEKSQRSQISSVNSDVEALRRQYLEELQSVQRELEVLSEQYSQKCLENAHLAQALEAERQALRQCQRENQELNAHNQELNNRLAAEITRLRTLLTGDGGGEATGSPLAQGKDAYELEVLPRVKESEPQYLKQEISSLKDELQTALRDKKYASDKYKDIYTELSIAKAKADCDISRLKEQLKAATEALGEKSPDSATVSGYDIMKSKSNPDFLKKDRSCVTRQLRNIRSKSVIEQVSWDT |  |  |  | little oligomerization |
| I919P/L926P: MRIP mutation employed by Mulder et al; double point mutation in CC5 (protein, UniProt Q6WCQ1 2-1025, looked up, variant I919P L926P) Myosin phosphatase …: SAAKENPCRKFQANIFNKSKCQNCFKPRESHLLNDEDLTQAKPIYGGWLLLAPDGTDFDNPVHRSRKWQRRFFILYEHGLLRYALDEMPTTLPQGTINMNQCTDVVDGEGRTGQKFSLCILTPEKEHFIRAETKEIVSGWLEMLMVYPRTNKQNQKKKRKVEPPTPQEPGPAKVAVTSSSSSSSSSSSIPSAEKVPTTKSTLWQEEMRTKDQPDGSSLSPAQSPSQSQPPAASSLREPGLESKEEESAMSSDRMDCGRKVRVESGYFSLEKTKQDLKAEEQQLPPPLSPPSPSTPNHRRSQVIEKFEALDIEKAEHMETNAVGPSPSSDTRQGRSEKRAFPRKRDFTNEAPPAPLPDASASPLSPHRRAKSLDRRSTEPSVTPDLLNFKKGWLTKQYEDGQWKKHWFVLADQSLRYYRDSVAEEAADLDGEIDLSACYDVTEYPVQRNYGFQIHTKEGEFTLSAMTSGIRRNWIQTIMKHVHPTTAPDVTSSLPEEKNKSSCSFETCPRPTEKQEAELGEPDPEQKRSRARERRREGRSKTFDWAEFRPIQQALAQERVGGVGPADTHEPLRPEAEPGELERERARRREERRKRFGMLDATDGPGTEDAALRMEVDRSPGLPMSDLKTHNVHVEIEQRWHQVETTPLREEKQVPIAPVHLSSEDGGDRLSTHELTSLLEKELEQSQKEASDLLEQNRLLQDQLRVALGREQSAREGYVLQATCERGFAAMEETHQKKIEDLQRQHQRELEKLREEKDRLLAEETAATISAIEAMKNAHREEMERELEKSQRSQISSVNSDVEALRRQYLEELQSVQRELEVLSEQYSQKCLENAHLAQALEAERQALRQCQRENQELNAHNQELNNRLAAEITRLRTLLTGDGGGEATGSPLAQGKDAYELEVLLRVKESEIQYLKQEPSSLKDEPQTALRDKKYASDKYKDIYTELSIAKAKADCDISRLKEQLKAATEALGEKSPDSATVSGYDIMKSKSNPDFLKKDRSCVTRQLRNIRSKSVIEQVSWDT |  |  |  | little oligomerization |
